In patent US20100233095A1 (ADLYFE, published 2010):
pyrene = pyrene (fluorescent label); PBA = not defined here

Key:
[1] = target: T1, Aβ42 oligomer (soluble Aβ42 target protein oligomers) (UniProt P05067 672-713); assay: pyrene fluorescence of di-pyrene Peptide 45 with 0, 0.03, 0.1 and 0.3 µM Aβ42 oligomer; free peptide 9:1
T1 construct: domain: Aβ1-42; Soluble oligomeric aggregate; also called synthetic Aβ42 oligomer

[2] = target: T2, biotinylated Aβ 42 oligomer (UniProt P05067 672-713, biotin (site not stated)); assay: streptavidin bead capture of biotinylated oligomer, SDS-PAGE
T2 construct: domain: Aβ1-42; Captured on streptavidin-coated magnetic beads; also called biotin-labeled soluble Aβ42 target protein oligomers; synthetic biotinylated oligomer
Method: Labeled peptide probe (SEQ ID NO:1, 2 μM) and biotinylated target protein (Aβ 42 oligomers, 2 μM) are incubated in PBS for 30 minutes. The mixture is then subjected to a capture step using magnetic beads coated with streptavidin. The beads are washed with PBS to remove unbound material and the captured material is analyzed by SDS-PAGE.

[3] = target: T1, Aβ42 oligomer (soluble Aβ42 target …); assay: G25 size exclusion spin column, fluorescence of the eluant; 2 µM probe, 2 µM oligomer
Method: Labeled peptide probe (SEQ ID NO:1, 2 μM) and target protein (Aβ oligomers, 2 μM) are incubated together for 90 minutes in Hepes buffer (10 mM, pH 7.0) and then loaded onto a G25 size exclusion column, which has a 5000 Da molecular weight cutoff. The column is subjected to centrifugation at 735×g for 2 minutes. Eluants and column material are analyzed by a TECAN fluorimeter. This method is illustrated in FIG. 14A. Eluant also may be analyzed by SDS-PAGE (not shown).

[4] = target: T3, Aβ42 Fiber (insoluble Aβ42 target protein fibers) (UniProt P05067 672-713); assay: centrifugation of insoluble fibers with soluble probe, SDS-PAGE of the pellet, 40% TFE
T3 construct: domain: Aβ1-42; Insoluble fibrillar aggregate of Aβ42; also called Aβ 1-42 fiber; Aβ42 fibers
Method: Aβ42 Fiber (target protein) and peptide probe (SEQ ID NO:1) are incubated for 3 hours in the presence of increasing amounts of trifluoroethanol (TFE). The samples are centrifuged at 17,000×g for 30 minutes, and the pellets are denatured in sample buffer and analyzed by SDS-PAGE. Reference samples (Input) are shown for comparison. In this example, binding of target protein and peptide probe is clearly observed at the 40% TFE condition (compare left and right panels at 40% TFE, where the “peptide” band appears in the left panel but not the right panel).

[5] = target: T4, streptavidin (on magnetic dynabeads) (UniProt P22629 37-163, limits assumed); assay: streptavidin bead pull-down (protocol B) without biotinylated oligomer, SDS-PAGE
T4 construct: Capture reagent; also called streptavidin bead; magnetic streptavidin beads
Method: In an alternative assay with Peptide 22 (protocol B, illustrated in FIG. 5A), […] biotinylated Aβ 42 oligomer was incubated with pre-washed streptavidin dynabeads at room temperature for 30 minutes. The complex was then washed two times with PBS buffer, and resuspended in PBS buffer. Equal volumes of bound oligomer and 4 μM labeled peptide probe (SEQ ID NO:2) were then combined, and incubated for 30 minutes at room temperature. Unbound material was then washed away with three PBS washes, followed by the collection of the bead complexes by magnet. The complex was then resuspended in 1×LDS buffer, boiled for 10 minutes, and loaded on 10% Bis-Tris gels.

[6] = target: T5, bovine serum albumin (control substrate) (bovine, UniProt P02769 25-607); assay: pyrene monomer fluorescence of di-pyrene Peptide 22 over time, in water, substrate 0.03-0.3 uM
T5 construct: also called BSA
Method: FIG. 12 illustrates the specificity of Peptide 22 (SEQ ID NO:2) for soluble Aβ oligomers. The first two panels show the dose-dependent increase in pyrene monomer signal when Peptide 22 is incubated with soluble Aβ oligomers prepared by two different methods. The next two panels show no change in fluorescence when Peptide 22 is incubated with Aβ40 monomers and Aβ42 monomers. […] The last two panels show no change in fluorescence when Peptide 22 is incubated with control solutions (BSA or Anhydrase). […] (dotted line=0.3 uM substrate; dashed line=0.1 uM; dashed/dot line=0.03 uM; solid line=p22 alone).
Peptide 22 (100 nM) is incubated in water for 15 hours at room temperature with equimolar concentrations ([…]) of several potential A0 substrates: Aβ42 oligomer (type 1); Aβ42 oligomer (type 2); Aβ 1-42 monomer; Aβ 1-40 monomer; Aβ 1-42 fiber; Aβ 1-40 fiber; bovine serum albumin (control substrate); and carbonic anhydrase (control substrate).

[7] = target: T1, Aβ42 oligomer (soluble Aβ42 target …); assay: pyrene fluorescence, aqueous assay; transition from excimer to self-fluorescence

T1 sequence (P05067 672-713 limits assumed): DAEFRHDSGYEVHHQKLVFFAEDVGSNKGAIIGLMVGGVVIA
T4 sequence (P22629 37-163 limits assumed): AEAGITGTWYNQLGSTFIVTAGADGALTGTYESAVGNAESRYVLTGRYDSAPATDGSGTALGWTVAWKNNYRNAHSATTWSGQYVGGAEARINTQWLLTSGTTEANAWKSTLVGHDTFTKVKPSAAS
T5 sequence (P02769 25-607 limits assumed): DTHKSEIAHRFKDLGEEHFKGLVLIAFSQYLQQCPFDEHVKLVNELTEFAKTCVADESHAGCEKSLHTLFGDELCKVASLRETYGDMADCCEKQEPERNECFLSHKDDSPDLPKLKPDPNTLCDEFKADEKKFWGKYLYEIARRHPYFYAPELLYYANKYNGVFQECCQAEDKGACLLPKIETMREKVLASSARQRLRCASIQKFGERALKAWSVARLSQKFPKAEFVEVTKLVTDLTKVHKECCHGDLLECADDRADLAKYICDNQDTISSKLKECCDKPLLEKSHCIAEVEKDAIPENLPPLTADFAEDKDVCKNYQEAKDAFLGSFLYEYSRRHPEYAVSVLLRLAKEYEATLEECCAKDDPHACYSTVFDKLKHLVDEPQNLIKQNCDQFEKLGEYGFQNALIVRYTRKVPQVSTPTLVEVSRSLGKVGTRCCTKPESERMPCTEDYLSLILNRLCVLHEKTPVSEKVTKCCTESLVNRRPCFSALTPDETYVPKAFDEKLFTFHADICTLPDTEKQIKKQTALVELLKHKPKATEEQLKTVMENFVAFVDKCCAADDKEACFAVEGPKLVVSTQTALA
T3 sequence (P05067 672-713 limits assumed): as the sequence (P05067 672-713 limits assumed) above
T2 sequence (P05067 672-713 limits assumed): as above

B1: Peptide 45 (SEQ ID NO:4) (peptide)
peptide: pyrene-KAAAKLVFFAEDVGSNKHAIIELMK-NH2
modifications: not fully specified (residue 25)
notes: also called P45
**Q.** Which “excimer:monomer fluorescence ratio” value [1] does the source give for B1 here?
**A.** 20 ratio (x:1)

B2: peptide probe of SEQ ID NO:1 (WT reference sequence, Aβ protein residues 16-35 with added C-terminal Lys) (peptide)
peptide: {PBA}-KLVFFAEDVGSNKGAIIGLMK(PBA)-NH2
modifications: reading uncertain; also: labels are the default, some assays say only 'labeled', centrifugation assay may use unlabeled peptide
notes: Synthetic probe; also called wildtype
**Q.** Does B2 bind [2]?
**A.** binds

**Q.** Does B2 bind [3]?
**A.** binds

**Q.** Does B2 bind [4]?
**A.** binds

B3: Peptide 22 (SEQ ID NO:2) (peptide)
peptide: pyrene-KLVFFAEDVGSNKHAIIELMK(pyrene)-NH2
notes: Designed variant of the Aβ 16-35 probe with a salt bridge; also called P22; p22
**Q.** Which results are given for B3?
**A.** binding result [5]: no binding (tested: 4 µM); binding result [6]: no binding (tested: 0.3 uM)

B4: Peptide 22 variation 2 (SEQ ID NO:15) (peptide)
peptide: pyrene-KLVFFAEDVGSNKKAIIELMK(pyrene)-NH2
notes: also called P22 v.2; Peptide 22 var
**Q.** Does B4 bind [7]?
**A.** binds

B5: Peptide 22 variation 1 (SEQ ID NO:14) (peptide)
peptide: pyrene-KLVFFAEDVGSNKRAIIELMK(pyrene)-NH2
notes: also called P22 v.1; Peptide 22 var
**Q.** Does B5 bind [7]?
**A.** binds
